Source: patent EP4682164A1 (Curogen Technology Co., Ltd., dated 2026)

What was measured:
Assay in all cases: ELISA as in Example 8, cytokine coated on plate
[1] = target: T1, human IL-17A (IL-17AA homodimer) (human, UniProt Q16552 20-155, limits assumed)
T1 construct: also called hIL-17A; hIL-17AA

[2] = target: T2, human IL-17F (IL-17FF homodimer) (human, UniProt Q96PD4 31-163)
T2 construct: also called hIL-17F; hIL-17FF
T2 sequence (looked up): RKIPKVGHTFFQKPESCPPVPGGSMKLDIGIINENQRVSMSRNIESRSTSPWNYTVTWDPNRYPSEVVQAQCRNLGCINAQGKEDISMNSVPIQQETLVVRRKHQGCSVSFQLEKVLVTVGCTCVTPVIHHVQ

[3] = target: T3, murine TNFα (mouse, UniProt P06804 80-235)
T3 construct: also called mTNFα; mouse TNFα
T3 sequence (looked up): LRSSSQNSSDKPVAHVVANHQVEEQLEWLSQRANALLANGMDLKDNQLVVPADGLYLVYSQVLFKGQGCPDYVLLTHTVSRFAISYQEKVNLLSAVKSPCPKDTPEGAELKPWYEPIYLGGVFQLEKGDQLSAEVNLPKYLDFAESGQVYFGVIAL

T1 sequence (Q16552 20-155 limits assumed): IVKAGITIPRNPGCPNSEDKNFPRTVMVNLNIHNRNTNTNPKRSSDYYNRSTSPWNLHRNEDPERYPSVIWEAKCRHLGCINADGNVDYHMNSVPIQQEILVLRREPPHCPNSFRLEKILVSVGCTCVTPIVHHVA

EC50 [1]: 0.0803 µg/mL
EC50 [2]: 0.0907 µg/mL
EC50 [3]: 0.071 µg/mL
B1: IL-17RA/RC-Fc-mTNFR2 (T1-mT4-35) (Fc fusion)
chain: LRLLDHRAPVCSQPGLNCTVKNSDCLDDSWIHPRNLTPSSPKDLQIQLHFAHTQQGDLVPVAHIEWTLQTDASILYLEGAELSVLQLDTNERLCVRFEFLSKLRHHHRRWRFTFSHFVVDPGQEYEVTVHHLPKPIPDGDPNHQSKNFLVPDCEHPRMKVTTPCMSSALPWLNVSADGDNVHLVLNVSEEQHFGLSLYWNQVQGPPKPRWHKNLTGPQIITLNHTDLVPCLCIQVWPLEPDSVRTNICPFREDPRAHQNLWQAARLRLLTLQSWLLDAPCSLPAEAALCWRAPGGDPCQPLVPPLSWENVTVDKVLEFPLLKGHPNLCVQVNSSEKLQLQECLWADSLGPLKDDVLLLETRGPQDNRSLCALEPSGCTSLPSKASTRAARLGEYLLQDLQSGQCLQLWDDDLGALWACPMDKYIHKTGIEGRMDRNTGRGGEEKKKEKEKEEQEERETKTPECPSHTQPLGVFLFPPKPKDTLMISRTPEVTCVVVDVSQEDPEVQFNWYVDGVEVHNAKTKPREEQFNSTYRVVSVLTVLHQDWLNGKEYKCKVSNKGLPSSIEKTISKAKGQPREPQVYTLPPSQEEMTKNQVSLTCLVKGFYPSDIAVEWESNGQPENNYKTTPPVLDSDGSFFLYSRLTVDKSRWQEGNVFSCSVMHEALHNHYTQKSLSLSLGKGGGGSGGGGSGGGGSLEVPAQVVLTPYKPEPGYECQISQEYYDRKAQMCCAKCPPGQYVKHFCNKTSDTVCADCEASMYTQVWNQFRTCLSCSSSCTTDQVEIRACTKQQNRVCACEAGRYCALKTHSGSCRQCMRLSKCGPGFGVASSRAPNGNVLCKACAPGTFSDTTSSTDVCRPHRICSILAIPGNASTDAVCAPESPTLSAIPRTLYVSQPEPTRSQPLDQEPGPSQTPSILTSLGSTPIIEQSTKGG
notes: The hTNFR2 ECD is replaced by the mouse TNFR2 ECD; also called hT1-mT4-35; T1-T4-35
